According to US7326541 (TARGANTA THERAPEUTICS, dated 2008):
Where no end group is shown, it is not given here.

T1: GST/STAAU_R9-561-599 fusion protein from pGEX-6PK_STAAU_R9-561-599 (Staphylococcus aureus)
T1 construct: not shown: N-terminal GST tag encoded by pGEX-6P1 (Pharmacia Amersham Biotech); PreScission protease cleavage site, HMK phosphorylation site and cloning-site residues of pGEX-6PK
T1 chain: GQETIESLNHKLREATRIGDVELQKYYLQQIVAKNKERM

T2: STAAU_R9-35 (amino acids 35 to 599 of SEQ ID NO: 2) in pGADT7, Gal4 activation domain fusion (yeast; Staphylococcus aureus, UniProt Q5HFJ8 35-599)
T2 construct: Yeast two-hybrid construct
T2 sequence: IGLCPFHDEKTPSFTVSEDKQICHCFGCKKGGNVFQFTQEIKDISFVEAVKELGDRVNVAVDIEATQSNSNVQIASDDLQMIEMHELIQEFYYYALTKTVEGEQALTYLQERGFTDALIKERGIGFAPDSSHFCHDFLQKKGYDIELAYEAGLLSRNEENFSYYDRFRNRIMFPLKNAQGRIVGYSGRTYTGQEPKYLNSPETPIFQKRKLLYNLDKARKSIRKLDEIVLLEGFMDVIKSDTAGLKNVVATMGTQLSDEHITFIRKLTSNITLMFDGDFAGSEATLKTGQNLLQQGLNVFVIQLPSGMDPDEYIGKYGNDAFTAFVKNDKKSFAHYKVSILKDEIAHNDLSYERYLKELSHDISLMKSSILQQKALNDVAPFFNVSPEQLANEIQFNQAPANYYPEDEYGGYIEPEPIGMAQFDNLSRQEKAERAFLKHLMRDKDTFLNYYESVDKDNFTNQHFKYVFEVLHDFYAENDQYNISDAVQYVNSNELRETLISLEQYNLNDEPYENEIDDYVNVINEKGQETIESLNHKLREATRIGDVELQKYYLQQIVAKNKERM

T3: GST/96ORF78 fusion protein from pGEX-6PK 96ORF078 (Staphylococcus aureus bacteriophage 96)
T3 construct: immobilized on nitrocellulose after SDS-PAGE, denatured and renatured; also called GST/960RF78; not shown: N-terminal GST tag encoded by pGEX-6P1 (Pharmacia Amersham Biotech); PreScission protease cleavage site and heart muscle kinase (HMK) phosphorylation site of pGEX-6PK (encoded by oligonucle)
T3 chain: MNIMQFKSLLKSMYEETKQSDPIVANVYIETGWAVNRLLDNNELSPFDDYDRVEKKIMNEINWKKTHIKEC

B1: 96 ORF 78 fused to the yeast Gal4 activation domain (pGADT7) (other)
chain: T3 chain
B2: GST-cleaved 96 ORF 78 polypeptide (from pGEX-6PK 96ORF078) (other)
chain: T3 chain
modifications: labelled with [^32P] at the heart muscle kinase phosphate acceptor site when used as probe
notes: also called [^32P]-96 ORF 78; purified 96 ORF 78 protein; not shown: vector residues left after PreScission cleavage, with the HMK phosphorylation site of pGEX-6PK
B3: Lamin C control of the yeast two-hybrid system (pGBKLaminC) (other)
chain: MKLLSSIEQACDICRLKKLKCSKEKPKCAKCLKNNWECRYSPKTKRSPLTRAHLTEVESRLERLEQLFLLIFPREDLDMILKMDSLQDIKALLTGLFVQDNVNKDAVTDRLASVETDMPLTLRQHRISATSSSEESSNKGQRQLTVSSEEVVSREVSGIKAAYEAELGDARKTLDSVAKERARLQLELSKVREEFKELKARNTKKEGDLIAAQARLKDLEALLNSKEAALSTALSEKRTLEGELHDLRGQVAKLEAALGEAKKQLQDEMLRRVDAENRLQTMKEELDFQKNIYSEELRETKRRHETRLVEID
notes: also called pGBKT7LaminC
B4: 96 ORF 78 fused to the carboxyl terminus of the yeast Gal4 DNA binding domain (pGBK 96ORF78) (other)
chain: MKLLSSIEQACDICRLKKLKCSKEKPKCAKCLKNNWECRYSPKTKRSPLTRAHLTEVESRLERLEQLFLLIFPREDLDMILKMDSLQDIKALLTGLFVQDNVNKDAVTDRLASVETDMPLTLRQHRISATSSSEESSNKGQRQLTVSMNIMQFKSLLKSMYEETKQSDPIVANVYIETGWAVNRLLDNNELSPFDDYDRVEKKIMNEINWKKTHIKEC
B5: GST-cleaved STAAU_R9-561-599 (peptide)
chain: T1 chain
modifications: not fully specified; also: labelled with [32P] at the HMK phosphate acceptor site when used as probe
notes: not shown: vector residues left after PreScission cleavage, with the HMK phosphorylation site of pGEX-6PK

Tests used:
[1] = target: STAAU_R9-35 (amino acids 35 to 599 of SEQ ID NO: 2) in pGBKT7, Gal4 DNA binding domain fusion (yeast; Staphylococcus aureus, UniProt P04386 1-147); test: cell-based or functional assay
[2] = target: B3; test: yeast two-hybrid, growth on THAL minus medium
[3] = target: T1, GST/STAAU_R9-561-599 fusion protein …; test: affinity blotting (Far western), 32P-labelled probe on renatured blotted protein
[4] = target: B5; test: as above
[5] = target: T4, GST (glutathione-S-transferase), negative control (UniProt P08515 1-218 = GST); test: as above
T4 construct: also called purified GST protein

[6] = target: T2, STAAU_R9-35 (amino acids 35 to 599 of …); test: yeast two-hybrid, growth on THAL minus medium
[7] = target: T2, STAAU_R9-35 (amino acids 35 to 599 of …); test: cell-based or functional assay
[8] = target: T3, GST/96ORF78 fusion protein from …; test: affinity blotting (Far western), 32P-labelled probe on renatured blotted protein
[9] = target: B2; test: as above
[10] = target: B4; test: yeast two-hybrid, growth on THAL minus medium

T4 sequence (P08515 whole entry): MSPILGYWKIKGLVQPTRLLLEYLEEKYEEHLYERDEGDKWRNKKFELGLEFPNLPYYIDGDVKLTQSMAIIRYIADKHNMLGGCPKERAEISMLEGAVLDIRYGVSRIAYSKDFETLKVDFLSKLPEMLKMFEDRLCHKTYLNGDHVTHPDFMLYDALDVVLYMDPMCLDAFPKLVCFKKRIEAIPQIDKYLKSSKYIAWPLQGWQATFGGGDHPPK

B1
β-galactosidase activity [1]: 10 fold
binding result [2]: no binding

B2
binding result [3]: binds
binding result [4]: binds
binding result [5]: no binding

B3
binding result [6]: no binding

B4
β-galactosidase activity [7]: 10 fold

B5
binding result [8]: binds
binding result [9]: binds
binding result [5]: no binding

GQETIESLNHKLREATRIGDVELQKYYLQQIVAKNKERM (other, Yeast two-hybrid construct)
binding result [10]: binds
